Assay results as given in US20200239543A1 (ALX ONCOLOGY, published 2020).

Tests used:
human CD47 [1] = biological target: T1, human CD47 (human, UniProt Q08722 19-139); experiment: SPR, 25 C, 1:1 Langmuir fit
T1 construct: extracellular domain; also called CD47 ECD

human CD47 [2] = biological target: T1, human CD47; experiment: SPR; protein made in E. coli
human CD47 [3] = biological target: T1, human CD47; experiment: SPR as in Example 1
human CD47 [4] = biological target: T1, human CD47; experiment: SPR, 25 C, 1:1 Langmuir fit; remark: listed apart in the source
human CD47 [5] = biological target: T1, human CD47; experiment: SPR (Biacore T100 and ProteOn XPR36)
mouse CD47 = biological target: T2, mouse CD47 (mouse, UniProt Q61735 19-140, limits assumed); experiment: SPR (Biacore T100 and ProteOn XPR36)
T2 construct: also called mouse CD47 protein
T2 sequence (looked up): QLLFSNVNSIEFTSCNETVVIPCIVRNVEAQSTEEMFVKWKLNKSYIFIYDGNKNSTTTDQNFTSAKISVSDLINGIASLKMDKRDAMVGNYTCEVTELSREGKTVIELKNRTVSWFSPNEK

rat CD47 = biological target: T3, rat CD47 (rat, UniProt P97829 19-140, limits assumed); experiment: SPR (Biacore T100 and ProteOn XPR36)
T3 sequence (looked up): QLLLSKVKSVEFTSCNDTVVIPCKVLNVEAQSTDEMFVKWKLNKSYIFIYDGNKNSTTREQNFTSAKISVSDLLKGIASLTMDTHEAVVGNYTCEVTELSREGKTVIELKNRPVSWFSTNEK

T1 sequence (Q08722 19-139 limits assumed): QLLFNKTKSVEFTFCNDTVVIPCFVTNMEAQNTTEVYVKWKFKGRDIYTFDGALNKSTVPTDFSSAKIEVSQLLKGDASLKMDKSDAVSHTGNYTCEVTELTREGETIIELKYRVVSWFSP

B1: SIRP-α D1 variant polypeptide of SEQ ID NO: 54 (receptor)
chain: EEELQVIQPDKSVSVAAGESAILHCTVTSLFPVGPIQWFRGAGPARELIYNQRQGPFPRVTTVSESTKRENMDFSISISNITPADAGTYYCVKFRKGSPDTEFKSGAGTELSVRAKPS
notes: engineered SIRP-α D1 domain
With B1 the Kd (human CD47 [1]) was 2.7 nM and the Kd (human CD47 [2]) was 2.7 nM.

B2: SIRP-α D1 variant polypeptide of SEQ ID NO: 56 (receptor)
chain: EEELQIIQPDKSVSVAAGESAILHCTVTSLFPVGPIQWFRGAGPARVLIYNQRQGPFPRVTTVSETTKRENMDFSISISNITPADAGTYYCIKFRKGSPDTEFKSGAGTELSVRAKPS
notes: engineered SIRP-α D1 domain
With B2 the Kd (human CD47 [1]) was 0.2 nM and the Kd (human CD47 [2]) was 0.2 nM.

B3: SIRP-α D1 variant polypeptide of SEQ ID NO: 57 (receptor)
chain: EEELQIIQPDKSVSVAAGESAILHCTITSLIPVGPIQWFRGAGPARVLIYNQRQGPFPRVTTVSETTKRENMDFSISISNITPADAGTYYCIKFRKGSPDTEFKSGAGTELSVRAKPS
notes: engineered SIRP-α D1 domain
For B3, the Kd (human CD47 [1]) was 0.36 nM and the Kd (human CD47 [2]) was 0.36 nM.

B4: SIRP-α D1 variant polypeptide of SEQ ID NO: 58 (receptor)
chain: EEELQIIQPDKSVSVAAGESAILHCTITSLFPVGPIQWFRGAGPARELIYNQRQGPFPRVTTVSETTKRENMDFSISISNITPADAGTYYCIKFRKGSPDTEFKSGAGTELSVRAKPS
notes: engineered SIRP-α D1 domain
In the case of B4, the Kd (human CD47 [1]) is reported as 0.16 nM and the Kd (human CD47 [2]) is reported as 0.16 nM.

B5: SIRP-α D1 variant polypeptide of SEQ ID NO: 59 (receptor)
chain: EEELQIIQPDKSVSVAAGESAILHCTITSLFPVGPIQWFRGAGPARVLIYNQKQGPFPRVTTVSETTKRENMDFSISISNITPADAGTYYCIKFRKGSPDTEFKSGAGTELSVRAKPS
notes: engineered SIRP-α D1 domain
Binder B5 has a Kd (human CD47 [1]) of 14 nM and a Kd (human CD47 [2]) of 14 nM.

B6: SIRP-α D1 variant polypeptide of SEQ ID NO: 60 (receptor)
chain: EEELQIIQPDKSVSVAAGESAILHCTITSLFPVGPIQWFRGAGPARVLIYNQREGPFPRVTTVSETTKRENMDFSISISNITPADAGTYYCIKFRKGSPDTEFKSGAGTELSVRAKPS
notes: engineered SIRP-α D1 domain
Binder B6 has a Kd (human CD47 [1]) of 0.38 nM and a Kd (human CD47 [2]) of 0.38 nM.

B7: SIRP-α D1 variant fused to Fc variant, SEQ ID NO: 97 (Fc fusion)
chain: EEELQVIQPDKSVLVAAGETATLRCTATSLFPVGPIQWFRGAGPGRELIYNQRQGPFPRVTTVSDLTKRNNMDFSIRIGNITPADAGTYYCVKFRKGSPDDVEFKSGAGTELSVRAKPSDKTHTCPPCPAPEAAGAPSVFLFPPKPKDTLMISRTPEVTCVVVDVSHEDPEVKFNWYVDGVEVHNAKTKPREEQYASTYRVVSVLTVLHQDWLNGKEYKCKVSNKALPAPIEKTISKAKGQPREPQVYTLPPSREEMTKNQVSLTCLVKGFYPSDIAVEWESNGQPENNYKTTPPVLDSDGSFFLYSKLTVDKSRWQQGNVFSCSVMHEALHNHYTQKSLSLSPGK
B7 gave a Kd (human CD47 [3]) of 1.09 nM and a Kd (human CD47 [4]) of 1.55 nM.

B8: engineered SIRP-α D1 variant construct that does not bind CD47, SEQ ID NO: 215 (Fc fusion)
chain: EEELQVIQPDKSVLVAAGETATLRCTATSLIPRGPIQWFRGAGPGRELIYNRKEGHFPRVTTVSDLTKRNNMDFSIRIGNITPADAGTYYCVKFRKGSPDDVEFKSGAGTELSVRAKPSDKTHTCPPCPAPEAAGAPSVFLFPPKPKDTLMISRTPEVTCVVVDVSHEDPEVKFNWYVDGVEVHNAKTKPREEQYASTYRVVSVLTVLHQDWLNGKEYKCKVSNKALPAPIEKTISKAKGQPREPQVYTLPPSREEMTKNQVSLTCLVKGFYPSDIAVEWESNGQPENNYKTTPPVLDSDGSFFLYSKLTVDKSRWQQGNVFSCSVMHEALHNHYTQKSLSLSPGK
notes: negative control; also called negative control
B8: no binding (human CD47 [5]); no binding (mouse CD47); no binding (rat CD47).

B9: SIRP-α D1 variant fused to Fc variant, SEQ ID NO: 108 (Fc fusion)
chain: EEELQVIQPDKSVLVAAGETATLRCTATSLFPVGPIQWFRGAGPGRELIYNQRQGPFPRVTTVSDLTKRNNMDFSIRIGAITPADAGTYYCVKFRKGSPDDVEFKSGAGTELSVRAKPSVECPPCPAPPVAGPSVFLFPPKPKDTLMISRTPEVTCVVVDVSHEDPEVQFNWYVDGVEVHNAKTKPREEQFASTFRVVSVLTVVHQDWLNGKEYKCKVSNKGLPSSIEKTISKTKGQPREPQVYTLPPSREEMTKNQVSLTCLVKGFYPSDIAVEWESNGQPENNYKTTPPMLDSDGSFFLYSKLTVDKSRWQQGNVFSCSVMHEALHNHYTQKSLSLSPGK
B9 gave a Kd (human CD47 [3]) of 0.478 nM.

B10: SIRP-α D1 variant fused to Fc variant, SEQ ID NO: 109 (Fc fusion)
chain: EEELQVIQPDKSVLVAAGETATLRCTATSLFPVGPIQWFRGAGPGRELIYNQREGPFPRVTTVSDLTKRNNMDFSIRIGAITPADAGTYYCVKFRKGSPDDVEFKSGAGTELSVRAKPSVECPPCPAPPVAGPSVFLFPPKPKDTLMISRTPEVTCVVVDVSHEDPEVQFNWYVDGVEVHNAKTKPREEQFASTFRVVSVLTVVHQDWLNGKEYKCKVSNKGLPSSIEKTISKTKGQPREPQVYTLPPSREEMTKNQVSLTCLVKGFYPSDIAVEWESNGQPENNYKTTPPMLDSDGSFFLYSKLTVDKSRWQQGNVFSCSVMHEALHNHYTQKSLSLSPGK
For B10, the Kd (human CD47 [3]) was 2.15 nM.

B11: SIRP-α D1 variant fused to Fc variant, SEQ ID NO: 111 (Fc fusion)
chain: EEELQIIQPDKSVLVAAGETATLRCTITSLFPVGPIQWFRGAGPGRELIYNQREGPFPRVTTVSDLTKRNNMDFSIRIGAITPADAGTYYCVKFRKGSPDDVEFKSGAGTELSVRAKPSVECPPCPAPPVAGPSVFLFPPKPKDTLMISRTPEVTCVVVDVSHEDPEVQFNWYVDGVEVHNAKTKPREEQFASTFRVVSVLTVVHQDWLNGKEYKCKVSNKGLPSSIEKTISKTKGQPREPQVYTLPPSREEMTKNQVSLTCLVKGFYPSDIAVEWESNGQPENNYKTTPPMLDSDGSFFLYSKLTVDKSRWQQGNVFSCSVMHEALHNHYTQKSLSLSPGK
Binder B11 has a Kd (human CD47 [3]) of 0.315 nM.

B12: SIRP-α D1 variant fused to Fc variant, SEQ ID NO: 114 (Fc fusion)
chain: EEELQIIQPDKSVLVAAGETATLRCTITSLFPVGPIQWFRGAGPGRVLIYNQRQGPFPRVTTVSDTTKRNNMDFSIRIGNITPADAGTYYCIKFRKGSPDDVEFKSGAGTELSVRAKPSERKSSVECPPCPAPPVAGPSVFLFPPKPKDTLMISRTPEVTCVVVDVSHEDPEVQFNWYVDGVEVHNAKTKPREEQFASTFRVVSVLTVVHQDWLNGKEYKCKVSNKGLPSSIEKTISKTKGQPREPQVYTLPPSREEMTKNQVSLTCLVKGFYPSDIAVEWESNGQPENNYKTTPPMLDSDGSFFLYSKLTVDKSRWQQGNVFSCSVMHEALHNHYTQKSLSLSPGK
Binder B12 has a Kd (human CD47 [3]) of 0.0343 nM.

B13: SIRP-α D1 variant fused to Fc variant, SEQ ID NO: 115 (Fc fusion)
chain: EEELQVIQPDKSVLVAAGETATLRCTATSLFPVGPIQWFRGAGPGRELIYNQRQGPFPRVTTVSDLTKRNNMDFSIRIGNITPADAGTYYCVKFRKGSPDDVEFKSGAGTELSVRAKPSERKSSVECPPCPAPPVAGPSVFLFPPKPKDTLMISRTPEVTCVVVDVSHEDPEVQFNWYVDGVEVHNAKTKPREEQFASTFRVVSVLTVVHQDWLNGKEYKCKVSNKGLPSSIEKTISKTKGQPREPQVYTLPPSREEMTKNQVSLTCLVKGFYPSDIAVEWESNGQPENNYKTTPPMLDSDGSFFLYSKLTVDKSRWQQGNVFSCSVMHEALHNHYTQKSLSLSPGK
B13 gave a Kd (human CD47 [3]) of 0.498 nM.

B14: SIRP-α D1 variant polypeptide of SEQ ID NO: 198 (receptor)
chain: EEELQIIQPDKSVLVAAGETATLRCTITSLYPVGPIQWFRGAGPGRELIYNQREGPFPRVTTVSDTTKRNNMDFSIRIGAITPADAGTYYCVKFRKGSPDDVEFKSGAGTELSVRAKPS
B14 gave a Kd (human CD47 [5]) of 0.155 nM, a Kd (mouse CD47) of 1.41 nM and a Kd (rat CD47) of 9.88 nM.

B15: SIRP-α D1 variant polypeptide of SEQ ID NO: 199 (receptor)
chain: EEELQIIQPDKSVLVAAGETATLRCTITSLFPVGPIQWFRGAGPGRELIYNQRDGPFPRVTTVSDTTKRNNMDFSIRIGAITPADAGTYYCVKFRKGSPDDVEFKSGAGTELSVRAKPS
Binder B15 has a Kd (human CD47 [5]) of 1.26 nM, a Kd (mouse CD47) of 1.25 nM and a Kd (rat CD47) of 10.7 nM.

B16: SIRP-α D1 variant polypeptide of SEQ ID NO: 200 (receptor)
chain: EEELQIIQPDKSVLVAAGETATLRCTITSLFPVGPIQWFRGAGPGRELIYNQREGPFPRVTTVSDTTKRNNMDFSIRIGAITPADAGTYYCVKFRKGIPDDVEFKSGAGTELSVRAKPS
In the case of B16, the Kd (human CD47 [5]) is reported as 0.304 nM, the Kd (mouse CD47) is reported as 1.17 nM and the Kd (rat CD47) is reported as 14.2 nM.

B17: SIRP-α D1 variant polypeptide of SEQ ID NO: 205 (receptor)
chain: EEELQIIQPDKSVLVAAGETATLRCTITSLRPVGPIQWFRGAGPGRELIYNQREGPFPRVTTVSDTTKRNNMDFSIRIGAITPADAGTYYCVKFRKGIPDDVEFKSGAGTELSVRAKPS
B17 gave a Kd (human CD47 [5]) of 0.248 nM, a Kd (mouse CD47) of 0.569 nM and a Kd (rat CD47) of 4.28 nM.

B18: SIRP-α D1 variant polypeptide of SEQ ID NO: 207 (receptor)
chain: EEELQIIQPDKSVLVAAGETATLRCTITSLYPVGPIQWFRGAGPGRELIYNQRDGPFPRVTTVSDTTKRNNMDFSIRIGAITPADAGTYYCVKFRKGSPDDVEFKSGAGTELSVRAKPS
Binder B18 has a Kd (human CD47 [5]) of 1.04 nM, a Kd (mouse CD47) of 0.88 nM and a Kd (rat CD47) of 5.9 nM.

B19: SIRP-α D1 variant polypeptide of SEQ ID NO: 208 (receptor)
chain: EEELQIIQPDKSVLVAAGETATLRCTITSLYPVGPIQWFRGAGPGRELIYNQREGPFPRVTTVSDTTKRNNMDFSIRIGAITPADAGTYYCVKFRKGIPDDVEFKSGAGTELSVRAKPS
In the case of B19, the Kd (human CD47 [5]) is reported as 0.219 nM, the Kd (mouse CD47) is reported as 0.832 nM and the Kd (rat CD47) is reported as 5.17 nM.

B20: SIRP-α D1 variant fused to Fc variant, SEQ ID NO: 214 (Fc fusion)
chain: EEELQVIQPDKSVLVAAGETATLRCTATSLFPVGPIQWFRGAGPGRELIYNQREGPFPRVTTVSDLTKRNNMDFSIRIGAITPADAGTYYCVKFRKGSPDDVEFKSGAGTELSVRAKPSERKSSVECPPCPAPPVAGPSVFLFPPKPKDTLMISRTPEVTCVVVDVSHEDPEVQFNWYVDGVEVHNAKTKPREEQFASTFRVVSVLTVVHQDWLNGKEYKCKVSNKGLPSSIEKTISKTKGQPREPQVYTLPPSREEMTKNQVSLTCLVKGFYPSDIAVEWESNGQPENNYKTTPPMLDSDGSFFLYSKLTVDKSRWQQGNVFSCSVMHEALHNHYTQKSLSLSPG
For B20, the Kd (human CD47 [5]) was 2 nM, the Kd (mouse CD47) was 63 nM and the Kd (rat CD47) was 80 nM.
